# Results from PMC4772976 (EMBO Reports, 2016).
# Molecular target: His-Ub (UniProt P0CG48 1-76)
# Assay: pull-down
binder,measurement,value
"GST-NAT10 RFL (RING finger-like, residues 456-558) (domain or fragment) SARTLYEVSLQESIRYAPGDAVEKWLNDLLCLDCLNITRIVSGCPLPEACELYYVNRDTLFCYHKASEVFLQRLMALYVASHYKNSPNDLQMLSDAPAHHLFC",binding result,binds
